Results: US20260137802A1 (CRISPR THERAPEUTICS, published 2026)

Experiments:
[1] = target: cynomolgus monkey CD117 ectodomain (cynomolgus monkey); experiment: BLI (Octet), biotinylated ectodomain on SA biosensor, 1:1 global fit, monomeric Fc
[2] = target: T1, human CD117 on cells (SKMEL-3 cells, CD34+ HSC) (human, UniProt P10721 26-976); experiment: flow cytometry, skMEL-3 cells, monomeric Fc
T1 construct: whole, on cells; also called CD117 on cell surfaces; CD117+ cells

human CD117 ectodomain [3] = target: T2, human CD117 ectodomain (human, UniProt P10721 26-524, biotinylated (BirA co-expression) where captured on streptavidin biosensors); experiment: ELISA, human CD117, monovalent Fc fusion
T2 construct: extracellular domain; also called cKIT; full length AviTagged CD117 ectodomain; not shown: C-terminal AviTag or His tag
T2 sequence (P10721 26-524): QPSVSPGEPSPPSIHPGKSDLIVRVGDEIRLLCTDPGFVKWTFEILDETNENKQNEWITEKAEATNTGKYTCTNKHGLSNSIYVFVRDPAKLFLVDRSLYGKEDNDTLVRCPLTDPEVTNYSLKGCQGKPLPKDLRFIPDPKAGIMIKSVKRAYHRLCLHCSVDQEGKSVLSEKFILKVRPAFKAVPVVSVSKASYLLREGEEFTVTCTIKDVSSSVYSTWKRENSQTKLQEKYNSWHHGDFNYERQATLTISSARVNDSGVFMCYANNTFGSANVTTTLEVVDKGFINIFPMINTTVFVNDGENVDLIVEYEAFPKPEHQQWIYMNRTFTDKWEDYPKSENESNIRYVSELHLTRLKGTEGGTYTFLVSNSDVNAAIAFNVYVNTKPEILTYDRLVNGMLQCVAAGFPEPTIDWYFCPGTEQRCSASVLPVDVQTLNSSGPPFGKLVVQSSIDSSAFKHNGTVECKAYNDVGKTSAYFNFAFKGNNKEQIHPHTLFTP

[4] = target: T1, human CD117 on cells (SKMEL-3 cells, …); experiment: flow cytometry, CD34+ HSC, monomeric Fc
human CD117 ectodomain [5] = target: T2, human CD117 ectodomain; experiment: BLI (Octet), biotinylated ectodomain on SA biosensor, 1:1 global fit, monomeric Fc
Excerpt: Pre-equilibrated streptavidin biosensors (SA, from Sartorius) were coated with biotinylated CD117 ectodomain by dipping the biosensors into wells containing an optimized dilution of human or cyno CD117 ectodomain. After re-equilibrating the biosensor tips in assay buffer, the biosensors were dipped into supernatant containing the VHH antibodies to allow association between the antibodies and the CD117 ectodomain. Finally, the biosensors were dipped into the assay buffer. The VHH antibodies disassociated from the CD117 ectodomain if association occurred. The association and dissociation of each VHH antibody was characterized qualitatively to identify VHHs that could bind both human and cyno CD117 ectodomains.
For example, kinetics parameters of the top VHH antibodies for binding to human CD117 and cynomolgus monkey CD117 ectodomain were obtained from the Octet® analysis by Biolayer Interferometry as described above. A minimum of three concentrations of purified VHH antibodies were tested per ectodomain target. The Octet® software was used to perform a global kinetic fit across all concentrations using a 1:1 binding model. This allowed determination of the kinetic parameters, association rate (kₒₙ), dissociation rate (koff) and equilibrium constant (KD) for the 9 antibodies of interest. Total chi-squared (X²) was also examined to determine the goodness of fit for the software's kinetic model.

[6] = target: T3, truncated CD117 ectodomain, Domains 1-3 (UniProt P10721 26-311, limits assumed, biotinylated); experiment: BLI, truncated ectodomain on SA biosensor
T3 construct: domain: Domains 1-3; not shown: AviTag
T3 sequence (P10721 26-311 limits assumed): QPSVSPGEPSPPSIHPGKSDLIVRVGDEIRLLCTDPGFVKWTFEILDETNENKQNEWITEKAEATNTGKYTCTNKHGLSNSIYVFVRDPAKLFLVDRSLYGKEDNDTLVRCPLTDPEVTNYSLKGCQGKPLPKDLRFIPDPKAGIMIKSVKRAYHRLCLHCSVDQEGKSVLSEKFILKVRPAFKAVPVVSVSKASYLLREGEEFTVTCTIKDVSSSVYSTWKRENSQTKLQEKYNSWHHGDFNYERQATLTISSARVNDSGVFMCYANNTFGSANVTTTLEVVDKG
Protocol: (§1) To identify the approximate binding epitopes of the VHH antibodies, truncated ectodomains were expressed as fusion polypeptides with an AviTag. Additionally, biotin is added to the protein during expression to allow capture of the material onto Streptavidin-coated (SA) biosensors. SA biosensors (Sartorius) were incubated with one of the truncated ectodomains. Full length CD117 ectodomain was used as a control. […] Except for P29 and P37, all others bind Domains 1-2 and Domains 1-3. Except for P37, all others bind Domains 1-4.

[7] = target: T4, truncated CD117 ectodomain, Domains 1-2 (UniProt P10721 26-208, limits assumed, biotinylated); experiment: BLI, truncated ectodomain on SA biosensor
T4 construct: domain: Domains 1-2; not shown: AviTag
T4 sequence (P10721 26-208 limits assumed): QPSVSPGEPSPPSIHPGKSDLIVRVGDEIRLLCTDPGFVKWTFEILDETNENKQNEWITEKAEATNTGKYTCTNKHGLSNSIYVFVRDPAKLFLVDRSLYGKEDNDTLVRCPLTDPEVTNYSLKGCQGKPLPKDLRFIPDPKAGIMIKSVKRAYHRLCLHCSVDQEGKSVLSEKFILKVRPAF
Protocol: as §1

[8] = target: T5, truncated CD117 ectodomain, Domain 1 (UniProt P10721 26-112, limits assumed, biotinylated); experiment: BLI, truncated ectodomain on SA biosensor
T5 construct: domain: Domain 1; not shown: AviTag
T5 sequence (P10721 26-112 limits assumed): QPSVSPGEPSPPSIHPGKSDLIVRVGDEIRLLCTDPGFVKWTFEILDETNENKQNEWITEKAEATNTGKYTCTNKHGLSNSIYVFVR
Protocol: as §1

[9] = target: T6, truncated CD117 ectodomain, Domains 1-4 (UniProt P10721 26-410, limits assumed, biotinylated); experiment: BLI, truncated ectodomain on SA biosensor
T6 construct: domain: Domains 1-4; not shown: AviTag
T6 sequence (P10721 26-410 limits assumed): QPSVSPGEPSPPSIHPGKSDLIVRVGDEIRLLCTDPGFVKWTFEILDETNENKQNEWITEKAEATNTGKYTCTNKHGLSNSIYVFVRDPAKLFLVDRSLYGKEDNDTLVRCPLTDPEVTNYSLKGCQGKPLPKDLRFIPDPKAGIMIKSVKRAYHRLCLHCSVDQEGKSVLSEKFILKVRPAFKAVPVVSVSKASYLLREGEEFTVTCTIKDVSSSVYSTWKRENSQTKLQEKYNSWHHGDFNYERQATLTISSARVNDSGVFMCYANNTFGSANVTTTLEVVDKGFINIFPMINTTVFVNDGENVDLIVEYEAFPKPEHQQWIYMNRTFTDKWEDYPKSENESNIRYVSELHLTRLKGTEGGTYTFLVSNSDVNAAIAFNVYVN
Protocol: as §1

T1 sequence (P10721 26-976): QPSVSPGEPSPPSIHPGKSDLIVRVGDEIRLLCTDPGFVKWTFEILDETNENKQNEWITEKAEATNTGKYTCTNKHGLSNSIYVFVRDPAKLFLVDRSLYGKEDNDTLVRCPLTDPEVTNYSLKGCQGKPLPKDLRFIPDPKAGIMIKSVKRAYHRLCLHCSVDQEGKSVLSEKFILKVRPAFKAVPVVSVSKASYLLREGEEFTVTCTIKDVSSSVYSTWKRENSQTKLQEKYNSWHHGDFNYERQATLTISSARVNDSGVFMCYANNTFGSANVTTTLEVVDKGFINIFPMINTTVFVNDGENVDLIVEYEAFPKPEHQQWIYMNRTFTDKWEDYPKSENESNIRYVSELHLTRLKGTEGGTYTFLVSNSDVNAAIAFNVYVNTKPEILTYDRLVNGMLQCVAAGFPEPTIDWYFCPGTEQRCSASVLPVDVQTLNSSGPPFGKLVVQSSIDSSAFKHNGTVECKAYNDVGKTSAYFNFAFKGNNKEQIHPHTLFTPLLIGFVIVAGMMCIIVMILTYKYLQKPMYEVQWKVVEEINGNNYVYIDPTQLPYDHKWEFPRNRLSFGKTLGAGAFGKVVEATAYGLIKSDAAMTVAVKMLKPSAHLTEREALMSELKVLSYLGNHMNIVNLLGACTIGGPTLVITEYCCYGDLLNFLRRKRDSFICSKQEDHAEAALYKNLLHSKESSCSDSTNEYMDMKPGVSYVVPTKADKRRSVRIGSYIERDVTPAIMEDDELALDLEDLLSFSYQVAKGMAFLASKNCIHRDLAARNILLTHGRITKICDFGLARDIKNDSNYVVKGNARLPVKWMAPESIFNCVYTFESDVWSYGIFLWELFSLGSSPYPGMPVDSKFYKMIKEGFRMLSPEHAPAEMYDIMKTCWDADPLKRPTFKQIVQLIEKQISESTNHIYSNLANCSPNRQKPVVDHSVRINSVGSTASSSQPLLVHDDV

B1: P-0031 (Fc fusion)
chain: EVQLVESGGGLVRAGGSLRLSCAASGRTFTYDARAWFRQAPGKEREFVAAISWSGGSTYYPNSMKGRFTISRDNAKNTVYLQMNSLKPEDTAVYYCAADESFPAYYSDYALYRYWGQGTLVTVSS
notes: Any second Fc chain without VHH is not described in the text; also called monovalent form of P31; not shown: Fc fragment
Q: What does the source list for B1?
A: Kd [1]: 1.62 nM; EC50 [2]: 3 nM; Kd (human CD117 ectodomain [3]): 0.52 nM; EC50 [4]: 4 nM; Kd (human CD117 ectodomain [5]): 7.42 nM

B2: P-0037 (Fc fusion)
chain: QVQLVESGGGLVQAGDSLRLSCAVSGRTLSNYFMAWLRQAPGKEREFVAAIHWSLGSTYYQDPVKGRFTISRDKAKNTVYLQMNTLKPEDTATYICAAGQHLSGLGGSAWSIEGDYWGQGTQVTVSS
notes: Any second Fc chain without VHH is not described in the text; also called monovalent form of P37; not shown: Fc fragment
Q: For B2, which Kd [1] is on record?
A: Its Kd is 25 nM.

Q: And the EC50 [2]?
A: Its EC50 is 20 nM.

Q: And the Kd (human CD117 ectodomain [3])?
A: Its Kd is 0.97 nM.

Q: What about the EC50 [4] of the same binder?
A: Its EC50 is over 50 nM.

Q: What about the Kd (human CD117 ectodomain [5]) of the same binder?
A: Its Kd is 28 nM.

B3: P37 (VHH)
VHH: QVQLVESGGGLVQAGDSLRLSCAVSGRTLSNYFMAWLRQAPGKEREFVAAIHWSLGSTYYQDPVKGRFTISRDKAKNTVYLQMNTLKPEDTATYICAAGQHLSGLGGSAWSIEGDYWGQGTQVTVSS
notes: also called P37/P58; anti-CD117 VHH P37
Q: Does B3 bind [6]?
A: Result: no binding

Q: Does B3 bind [7]?
A: Result: no binding

Q: Does B3 bind [8]?
A: Result: no binding

Q: Does B3 bind [9]?
A: Result: no binding

B4: P-0038 (Fc fusion)
chain: EVQLVESGGGLVQAGGSLRLSCAASGRTSGSYVMGWFRQAPGKEREFVAAISWSAGMTYYADSVKGRFTISRDNAKNTVYLQMNSLKPEDTAVYYCAADQRGVPAYYSDYALYDYWGQGTQVTVSS
notes: Any second Fc chain without VHH is not described in the text; also called monovalent form of P38; not shown: Fc fragment
Q: Which results are given for B4?
A: Kd [1]: 19 nM; EC50 [2]: 10 nM; Kd (human CD117 ectodomain [3]): 1 nM; EC50 [4]: 10 nM; Kd (human CD117 ectodomain [5]): 8.85 nM

B5: P-0035 (Fc fusion)
chain: QVQLVESGGGLVQAGGSLRLSCAASGGTFSIYPVGWFRQAPGKQREFVAAIGWSASGTYYGDSVEGRFTVSRDNARSTVYLRMSSLKPDDTAVYYCAAASGSNWRLGAIDEYDSWGQGTQVTVSS
notes: Any second Fc chain without VHH is not described in the text; also called monovalent form of P35; not shown: Fc fragment
Q: Which Kd [1] does the source give for B5 here?
A: The Kd was 7.02 nM.

Q: And the EC50 [2]?
A: Its EC50 is 10 nM.

Q: What about the Kd (human CD117 ectodomain [3]) of the same binder?
A: Its Kd is 1.91 nM.

Q: What about the EC50 [4] of the same binder?
A: The EC50 was 30 nM.

Q: And the Kd (human CD117 ectodomain [5])?
A: The Kd was 2.89 nM.

B6: P29 (VHH)
VHH: QVHLVESGGGLVQAGGSLGLSCAASGHTFSNYAMGWFRQAPGKEREFVAAISWSGGSTLYADSVKGRFTISRDNGENTVYLQMNSLKPEDTAVYYCALDSTGVYGTGYVSSRKGRYEYWGQGTLVTVSS
notes: also called P29/P54; anti-CD117 VHH P29
Q: Does B6 bind [6]?
A: Result: no binding

Q: Does B6 bind [7]?
A: Result: no binding

Q: Does B6 bind [8]?
A: Result: no binding
